Measured values taken from patent US20220056091A1 (BRIGHT PEAK THERAPEUTICS, published 2022).
Positions count from the first letter of the chain named. Numbers in names are those of the source.

B1: Modified IL-18 polypeptide of SEQ ID NO: 2 (E06K, K53A, S55A) (ligand)
chain: YFGKLKSKLSVIRNLNDQVLFIDQGNRPLFEDMTDSDCRDNAPRTIFIISMYADAQPRGMAVTISVKCEKISTLSCENKIISFKEMNPPDNIKDTKSDIIFFQRSVPGHDNKMQFESSSYEGYFLACEKERDLFKLILKKEDELGDRSIMFTVQNED
B2: Modified IL-18 polypeptide of SEQ ID NO: 71 with a 30 kDa PEG attached at residue C68 (E6K, C38S, K53A, C68-30kDPEG) (ligand)
chain: B1 chain with C38S, A55S
modifications: 30 kDa PEG on Cys 68 (30 kDa DBCO-polyethylene glycol clicked to a bromoacetamido-PEG5-azide linker on the cysteine)
notes: also called 71 + PEG

Key:
[1] = biological target: anti-IL18 monoclonal antibody (MBL, cat #D043-3, Clone 25-2G); assay: sandwich ELISA, capture clone 25-2G, detection biotinylated clone 159-12B; in the presence of IL-18BP (form and concentration not given); the signal depends on both antibodies
Experimental: (§1) Immune-related PD effects were determined by analyzing cytokine levels in plasma. The following plasma cytokines were measured: IFNγ, CXCL9, CXCL10, GM-CSF, IL-1a, FasL, and IL-18BP. The activation status of leukocytes was determined by monitoring surface markers: ICOS, PD-1, CD25, CD69, and Fas. Bioanalysis was conducted by detecting the total amount of IL-18 variants (free and IL-18BP-complexed, see FIG. 7). Corning high-binding half-area plates (Fisher Scientific, Reinach, Switzerland) were coated overnight at 4° C. with 25 μl of anti-IL18 monoclonal antibody (MBL, cat #D043-3, Clone 25-2G) at 2 μg/ml in PBS. Plates were then washed four times with 100 μl of PBS-0.02% Tween20. Plates surfaces were blocked with 25 μl of PBS-0.02% Tween20-1% BSA at 37° C. during 1 h. Plates were then washed four times with 100 μl of PBS-0.02% Tween20. Twenty-five microliters of IL-18 variants (or of mouse plasma) were added in […] serial dilutions starting at 50 nM down to 0.02 nM into PBS-0.02% Tween20-0.1% BSA and incubated at 37° C. during 2h. […] Plates were incubated during 2h at 37° C. and were then washed four times with 100 μl of PBS-0.02% Tween20. […] ELISA signal was then measured at 450 nm on an EnSpire plate reader from Perkin Elmer (Schwerzenbach, Switzerland)

Fc fused human IL-18Rα = biological target: T1, Fc fused human IL-18Rα (human, UniProt Q13478 19-329, limits assumed); assay: SPR, Fc-IL-18Rα captured, 1:1 model
T1 construct: also called IL-18Rα monomer; IL-18 receptor alpha; not shown: Fc part
T1 sequence (looked up): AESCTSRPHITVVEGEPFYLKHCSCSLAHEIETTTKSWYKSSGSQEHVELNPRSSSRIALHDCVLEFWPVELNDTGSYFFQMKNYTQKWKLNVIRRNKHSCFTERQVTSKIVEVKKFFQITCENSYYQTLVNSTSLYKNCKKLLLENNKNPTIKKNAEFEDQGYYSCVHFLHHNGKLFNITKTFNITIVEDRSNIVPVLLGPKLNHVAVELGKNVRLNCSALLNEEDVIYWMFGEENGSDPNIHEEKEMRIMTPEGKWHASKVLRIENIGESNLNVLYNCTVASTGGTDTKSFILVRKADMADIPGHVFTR
Experimental: (§2) The interaction of the wild type and of modified IL-18 polypeptides with human IL-18 receptor subunits were measured with Surface Plasmon Resonance (SPR) technology. Anti-human IgG antibodies were bound by amine coupling onto a CM5 chip to capture 6 μg/mL of Fc fused human IL-18Rα, 6 μg/mL of Fc fused human IL-18Rβ, or 2 μg/mL of Fc fused human IL-18BP isoform a (IL-18BPa) for 30 min before capture. In other settings, 6 μg/mL of alpha and beta IL-18 receptors were mixed and pre-incubated for 30 min before capture of the alpha/beta heterodimer IL-18 receptor.
(§3) The kinetic binding of the IL-18 analytes were measured with a Biacore 8K instrument in two-fold serial dilutions starting at 1 μM down to 0.98 nM. Regeneration of the surface back to amine coupled anti IgG antibody was done after every concentration of analyte. To measure the protein association to the receptors, the samples were injected with a flow rate of 50 μL/min for 60 s, followed by 300 s buffer only to detect the dissociation. The used running buffer was 1×PBS with 0.05% Tween20. The relative response units (RU, Y-axis) are plotted against time (s, X-axis) and analyzed in a kinetic 1:1 binding model for the monomer receptor binding and for the binding to the IL-18BP. A kinetic heterogenous ligand fit model was applied for the alpha/beta heterodimer binding.
Modified IL-18 polypeptides having sequence modifications E06K, K53A, S55A, and T63A maintained binding affinity to IL-18Rα.

[2] = biological target: anti-IL18 monoclonal antibody (MBL, cat #D043-3, Clone 25-2G); assay: sandwich ELISA, capture clone 25-2G, detection biotinylated clone 159-12B; without IL-18BP; the signal depends on both antibodies
Experimental: as §1

[3] = biological target: IL-18R on HEK-Blue IL18R reporter cells (InvivoGen, #hkb-hmil18); assay: cell-based or functional assay
[4] = biological target: T2, IL-18Rα/β heterodimer (Fc fused human IL-18Rα mixed and pre-incubated with Fc fused human IL-18Rβ) (human, UniProt Q13478 19-329; O95256 20-356, limits assumed); assay: SPR, Fc-IL-18Rα/Fc-IL-18Rβ mix captured, heterogeneous ligand model
T2 construct: 6 µg/mL of each receptor mixed and pre-incubated 30 min before capture on anti-human IgG; also called alpha/beta heterodimer IL-18 receptor; not shown: Fc part
T2 sequence (looked up) 1: T1 sequence (looked up)
T2 sequence (looked up) 2: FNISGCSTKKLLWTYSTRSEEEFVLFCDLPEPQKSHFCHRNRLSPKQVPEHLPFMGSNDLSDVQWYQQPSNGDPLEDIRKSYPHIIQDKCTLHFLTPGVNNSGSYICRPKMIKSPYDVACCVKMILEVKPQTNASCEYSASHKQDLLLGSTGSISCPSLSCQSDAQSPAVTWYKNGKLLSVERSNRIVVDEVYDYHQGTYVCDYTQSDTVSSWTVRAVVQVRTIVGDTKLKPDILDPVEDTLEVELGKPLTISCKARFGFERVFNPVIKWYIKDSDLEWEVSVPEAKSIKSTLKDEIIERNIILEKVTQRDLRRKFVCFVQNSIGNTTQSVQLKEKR
Experimental: as §2, §3
Modified IL-18 polypeptides bearing sequence modifications E06K, K53A, S55A, and T63A maintained binding affinity to IL-18Rα/β heterodimer.

[5] = biological target: T3, Fc fused human IL-18BP isoform a (IL-18BPa) (human, UniProt O95998 31-194); assay: SPR, Fc-IL-18BPa captured, 1:1 model
T3 construct: also called IL-18BP monomer; not shown: Fc part
T3 sequence (looked up): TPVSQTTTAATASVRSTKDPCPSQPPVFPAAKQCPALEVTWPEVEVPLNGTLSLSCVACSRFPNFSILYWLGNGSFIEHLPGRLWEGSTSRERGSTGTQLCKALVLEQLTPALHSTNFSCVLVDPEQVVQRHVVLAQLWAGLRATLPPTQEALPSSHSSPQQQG
Experimental: as §2, §3
Modified IL-18 polypeptides bearing sequence modifications K53A, S55A, E06K, C38S, C68S, C76S, C127S, and/or K70C maintained binding affinity to IL-18BP.

| Binder | EC50 (read off the curve) [1] [nM] | Kd (Fc fused human IL-18Rα) [nM] | koff (Fc fused human IL-18Rα) [s⁻¹] | kon (Fc fused human IL-18Rα) [M⁻¹ s⁻¹] | EC50 (read off the curve) [2] [nM] | EC50 (pM), HEK-Blue IL18R reporter assay [3] [pM] | Potency loss Mutant/NWT, HEK-Blue IL18R reporter assay [3] [fold] | Kd [4] [nM] | koff [4] [s⁻¹] | kon [4] [M⁻¹ s⁻¹] | Kd [5] [nM] | koff [5] [s⁻¹] | kon [5] [M⁻¹ s⁻¹] |
| --- | --- | --- | --- | --- | --- | --- | --- | --- | --- | --- | --- | --- | --- |
| B1 | ~0.2 | 2000 | 0.0627 | 31800 | ~0.2 | 272 | 81.8 | 1930 | 0.0734 | 39200 |  |  |  |
| B2 |  | 682 | 0.0217 | 31800 |  | 1.85 | 0.56 | 23.9 | 0.0008 | 32200 | 24.5 | 0.0039 | 158000 |
